The values below come from the supplement of paper PMC5998384.

The subject of data set [1] is HeLa Kyoto. Nature of the data set: solubility in G1/S (NP-40 vs SDS abundance) (log2 ratio); higher = more soluble. Particulars: cell cycle stage: G1/S.
Data set [2] relates to HeLa Kyoto. Nature of the data set: melting temperature (median over replicates), in situ; higher = more thermally stable.
Data set [3] relates to HeLa Kyoto. Nature of the data set: solubility change mitosis vs G1/S (difference of NP-40 vs SDS log2 ratios) (log2 ratio difference); higher = more soluble in mitosis.
Data set [4] relates to HeLa Kyoto. Nature of the data set: thermal stability score vs G1/S (z-score of summed log2 fold changes over temperatures); higher = more thermally stable than in G1/S.
[5] abbreviates: cell cycle stage: early G1 (4.5 h after nocodazole release).
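For melting temperature (median over replicates), in situ in this document: HeLa Kyoto cells synchronized by double thymidine or nocodazole block, proteins quantified by TMT10plex mass spectrometry, three independent biological replicates.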
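For solubility change mitosis vs G1/S (difference of NP-40 vs SDS log2 ratios) in this document: synchronized HeLa Kyoto cells (double thymidine block for G1/S, nocodazole release for mitosis), protein amounts in NP-40 versus SDS lysates quantified by mass spectrometry, three biological replicates.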
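For solubility in G1/S (NP-40 vs SDS abundance) in this document: HeLa Kyoto cells arrested at G1/S by double thymidine block, proteins quantified by TMT10plex mass spectrometry in mild NP-40 versus SDS extracts, three biological replicates.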
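For thermal stability score vs G1/S (z-score of summed log2 fold changes over temperatures) in this document: synchronized HeLa Kyoto cells, proteins quantified by TMT10plex mass spectrometry, three biological replicates, mitosis taken 0.5 h after nocodazole release, G1/S directly after double thymidine block.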

As to “MTLTERLREKISRAFYNHGLLCASYPIPIILFTGFCILACCYPLLKLPLPGTGPVEFTTPVKDYSPPPVDSDRKQGEPTEQPEWYVGAPVAYVQQIFVKSSVFPWHKNLLAVDVFRSPLSRAFQLVEEIRNHVLRDSSGIRSLEELCLQVTDLLPGLRKLRNLLPEHGCLLLSPGNFWQNDWERFHADPDIIGTIHQHEPKTLQTSATLKDLLFGVPGKYSGVSLYTRKRMVSYTITLVFQHYHAKFLGSLRARLMLLHPSPNCSLRAESLVHVHFKEEIGVAELIPLVTTYIILFAYIYFSTRKIDMVKSKWGLALAAVVTVLSSLLMSVGLCTLFGLTPTLNGGEIFPYLVVVIGLENVLVLTKSVVSTPVDLEVKLRIAQGLSSESWSIMKNMATELGIILIGYFTLVPAIQEFCLFAVVGLVSDFFLQMLFFTTVLSIDIRRMELADLNKRLPPEACLPSAKPVGQPTRYERQLAVRPSTPHTITLQPSSFRNLRLPKRLRVVYFLARTRLAQRLIMAGTVVWIGILVYTDPAGLRNYLAAQVTEQSPLGEGALAPMPVPSGMLPPSHPDPAFSIFPPDAPKLPENQTSPGESPERGGPAEVVHDSPVPEVTWGPEDEELWRKLSFRHWPTLFSYYNITLAKRYISLLPVIPVTLRLNPREALEGRHPQDGRSAWPPPGPIPAGHWEAGPKGPGGVQAHGDVTLYKVAALGLATGIVLVLLLLCLYRVLCPRNYGQLGGGPGRRRRGELPCDDYGYAPPETEIVPLVLRGHLMDIECLASDGMLLVSCCLAGHVCVWDAQTGDCLTRIPRPGRQRRDSGVGSGLEAQESWERLSDGGKAGPEEPGDSPPLRHRPRGPPPPSLFGDQPDLTCLIDTNFSAQPRSSQPTQPEPRHRAVCGRSRDSPGYDFSCLVQRVYQEEGLAAVCTPALRPPSPGPVLSQAPEDEGGSPEKGSPSLAWAPSAEGSIWSLELQGNLIVVGRSSGRLEVWDAIEGVLCCSSEEVSSGITALVFLDKRIVAARLNGSLDFFSLETHTALSPLQFRGTPGRGSSPASPVYSSSDTVACHLTHTVPCAHQKPITALKAAAGRLVTGSQDHTLRVFRLEDSCCLFTLQGHSGAITTVYIDQTMVLASGGQDGAICLWDVLTGSRVSHVFAHRGDVTSLTCTTSCVISSGLDDLISIWDRSTGIKFYSIQQDLGCGASLGVISDNLLVTGGQGCVSFWDLNYGDLLQTVYLGKNSEAQPARQILVLDNAAIVCNFGSELSLVYVPSVLEKLD [SCAP]”, the “solubility in G1/S (log2)” value with HeLa Kyoto [1] was -0.105. The melting temperature in the data set on HeLa Kyoto [2] (cell cycle stage: G1/S) came to 53.4 °C; in the data set on HeLa Kyoto [2] (cell cycle stage: mitosis), 52.8 °C. The “solubility change mitosis (log2)” value with HeLa Kyoto [3] was -0.108. The thermal stability score in the data set on HeLa Kyoto [4] (setting [5]) was -0.535; with HeLa Kyoto [4] (cell cycle stage: mitosis), 0.3.
On to “MSDNQSWNSSGSEEDPETESGPPVERCGVLSKWTNYIHGWQDRWVVLKNNALSYYKSEDETEYGCRGSICLSKAVITPHDFDECRFDISVNDSVWYLRAQDPDHRQQWIDAIEQHKTESGYGSESSLRRHGSMVSLVSGASGYSATSTSSFKKGHSLREKLAEMETFRDILCRQVDTLQKYFDACADAVSKDELQRDKVVEDDEDDFPTTRSDGDFLHSTNGNKEKLFPHVTPKGINGIDFKGEAITFKATTAGILATLSHCIELMVKREDSWQKRLDKETEKKRRTEEAYKNAMTELKKKSHFGGPDYEEGPNSLINEEEFFDAVEAALDRQDKIEEQSQSEKVRLHWPTSLPSGDAFSSVGTHRFVQKPYSRSSSMSSIDLVSASDDVHRFSSQVEEMVQNHMTYSLQDVGGDANWQLVVEEGEMKVYRREVEENGIVLDPLKATHAVKGVTGHEVCNYFWNVDVRNDWETTIENFHVVETLADNAIIIYQTHKRVWPASQRDVLYLSVIRKIPALTENDPETWIVCNFSVDHDSAPLNNRCVRAKINVAMICQTLVSPPEGNQEISRDNILCKITYVANVNPGGWAPASVLRAVAKREYPKFLKRFTSYVQEKTAGKPILF [COL4A3BP]”, for which the “solubility in G1/S (log2)” value with HeLa Kyoto [1] came out at 0.0115. Besides, the values for the melting temperature with HeLa Kyoto [2] (cell cycle stage: G1/S) and with HeLa Kyoto [2] (cell cycle stage: mitosis) were 50.2 °C and 50.1 °C, respectively. For the same sequence, the “solubility change mitosis (log2)” value with HeLa Kyoto [3] is -0.167. The thermal stability score in the data set with HeLa Kyoto [4] (setting [5]) was -0.469; with HeLa Kyoto [4] (cell cycle stage: mitosis), -0.153.
In the case of “MAERGGDGGESERFNPGELRMAQQQALRFRGPAPPPNAVMRGPPPLMRPPPPFGMMRGPPPPPRPPFGRPPFDPNMPPMPPPGGIPPPMGPPHLQRPPFMPPPMSSMPPPPGMMFPPGMPPVTAPGTPALPPTEEIWVENKTPDGKVYYYNARTRESAWTKPDGVKVIQQSELTPMLAAQAQVQAQAQAQAQAQAQAQAQAQAQAQAQAQAQAQAQAQAQAQAQAQAQAQAQAQAQAQAQAQVQAQVQAQVQAQAVGASTPTTSSPAPAVSTSTSSSTPSSTTSTTTTATSVAQTVSTPTTQDQTPSSAVSVATPTVSVSTPAPTATPVQTVPQPHPQTLPPAVPHSVPQPTTAIPAFPPVMVPPFRVPLPGMPIPLPGVAMMQIVSCPYVKTVATTKTGVLPGMAPPIVPMIHPQVAIAASPATLAGATAVSEWTEYKTADGKTYYYNNRTLESTWEKPQELKEKEKLEEKIKEPIKEPSEEPLPMETEEEDPKEEPIKEIKEEPKEEEMTEEEKAAQKAKPVATAPIPGTPWCVVWTGDERVFFYNPTTRLSMWDRPDDLIGRADVDKIIQEPPHKKGMEELKKLRHPTPTMLSIQKWQFSMSAIKEEQELMEEINEDEPVKAKKRKRDDNKDIDSEKEAAMEAEIKAARERAIVPLEARMKQFKDMLLERGVSAFSTWEKELHKIVFDPRYLLLNPKERKQVFDQYVKTRAEEERREKKNKIMQAKEDFKKMMEEAKFNPRATFSEFAAKHAKDSRFKAIEKMKDREALFNEFVAAARKKEKEDSKTRGEKIKSDFFELLSNHHLDSQSRWSKVKDKVESDPRYKAVDSSSMREDLFKQYIEKIAKNLDSEKEKELERQARIEASLREREREVQKARSEQTKEIDREREQHKREEAIQNFKALLSDMVRSSDVSWSDTRRTLRKDHRWESGSLLEREEKEKLFNEHIEALTKKKREHFRQLLDETSAITLTSTWKEVKKIIKEDPRCIKFSSSDRKKQREFEEYIRDKYITAKADFRTLLKETKFITYRSKKLIQESDQHLKDVEKILQNDKRYLVLDCVPEERRKLIVAYVDDLDRRGPPPPPTASEPTRRSTK [TCERG1]”, the “solubility in G1/S (log2)” value in the data set with HeLa Kyoto [1] is 0.0535. In addition, the values for the melting temperature in the data set on HeLa Kyoto [2] (cell cycle stage: G1/S) and in the data set on HeLa Kyoto [2] (cell cycle stage: mitosis) were 48.5 °C and 48.8 °C, respectively. For the same sequence, the “solubility change mitosis (log2)” value in the data set with HeLa Kyoto [3] is -0.0317. Further, the thermal stability score with HeLa Kyoto [4] (setting [5]) came out at 2.7; in the data set on HeLa Kyoto [4] (cell cycle stage: mitosis), 5.16.
On to “MSSQSHPDGLSGRDQPVELLNPARVNHMPSTVDVATALPLQVAPSAVPMDLRLDHQFSLPVAEPALREQQLQQELLALKQKQQIQRQILIAEFQRQHEQLSRQHEAQLHEHIKQQQEMLAMKHQQELLEHQRKLERHRQEQELEKQHREQKLQQLKNKEKGKESAVASTEVKMKLQEFVLNKKKALAHRNLNHCISSDPRYWYGKTQHSSLDQSSPPQSGVSTSYNHPVLGMYDAKDDFPLRKTASEPNLKLRSRLKQKVAERRSSPLLRRKDGPVVTALKKRPLDVTDSACSSAPGSGPSSPNNSSGSVSAENGIAPAVPSIPAETSLAHRLVAREGSAAPLPLYTSPSLPNITLGLPATGPSAGTAGQQDAERLTLPALQQRLSLFPGTHLTPYLSTSPLERDGGAAHSPLLQHMVLLEQPPAQAPLVTGLGALPLHAQSLVGADRVSPSIHKLRQHRPLGRTQSAPLPQNAQALQHLVIQQQHQQFLEKHKQQFQQQQLQMNKIIPKPSEPARQPESHPEETEEELREHQALLDEPYLDRLPGQKEAHAQAGVQVKQEPIESDEEEAEPPREVEPGQRQPSEQELLFRQQALLLEQQRIHQLRNYQASMEAAGIPVSFGGHRPLSRAQSSPASATFPVSVQEPPTKPRFTTGLVYDTLMLKHQCTCGSSSSHPEHAGRIQSIWSRLQETGLRGKCECIRGRKATLEELQTVHSEAHTLLYGTNPLNRQKLDSKKLLGSLASVFVRLPCGGVGVDSDTIWNEVHSAGAARLAVGCVVELVFKVATGELKNGFAVVRPPGHHAEESTPMGFCYFNSVAVAAKLLQQRLSVSKILIVDWDVHHGNGTQQAFYSDPSVLYMSLHRYDDGNFFPGSGAPDEVGTGPGVGFNVNMAFTGGLDPPMGDAEYLAAFRTVVMPIASEFAPDVVLVSSGFDAVEGHPTPLGGYNLSARCFGYLTKQLMGLAGGRIVLALEGGHDLTAICDASEACVSALLGNELDPLPEKVLQQRPNANAVRSMEKVMEIHSKYWRCLQRTTSTAGRSLIEAQTCENEEAETVTAMASLSVGVKPAEKRPDEEPMEEEPPL [HDAC4]”, for which, in the data set on HeLa Kyoto [1], the “solubility in G1/S (log2)” value turned out to be 0.188. Further, the melting temperature was found to be 53.3 °C in the data set with HeLa Kyoto [2] (cell cycle stage: G1/S) and 52.9 °C with HeLa Kyoto [2] (cell cycle stage: mitosis). Also, in the data set with HeLa Kyoto [3], the “solubility change mitosis (log2)” value was -0.072. Also, the results for the thermal stability score in the data set on HeLa Kyoto [4] (setting [5]) and in the data set with HeLa Kyoto [4] (cell cycle stage: mitosis) were -0.241 and 0.236, respectively.
